Broadly, the Km is the concentration of substrate that gives half-maximal velocity.

Where only a bound is given, the exact number is not on record here.

Substrate in the series: COP(=O)(O)OC(=O)[C@@H]1N2C(=O)[C@@H](NC(=O)Cc3ccccc3)[C@H]2SC1(C)C
Briefly: Km against beta-lactamase in Escherichia coli.

B1: Beta-lactamase TEM (Escherichia coli), P62593 (protein)
chain: MSIQHFRVALIPFFAAFCLPVFAHPETLVKVKDAEDQLGARVGYIELDLNSGKILESFRPEERFPMMSTFKVLLCGAVLSRVDAGQEQLGRRIHYSQNDLVEYSPVTEKHLTDGMTVRELCSAAITMSDNTAANLLLTTIGGPKELTAFLHNMGDHVTRLDRWEPELNEAIPNDERDTTMPAAMATTLRKLLTGELLTLASRQQLIDWMEADKVAGPLLRSALPAGWFIADKSGAGERGSRGIIAALGPDGKPSRIVVIYTTGSQATMDERNRQIAEIGASLIKHW
B1: the Km is above 50 mM.

For the origin of these results see ChEMBL document CHEMBL1127885, “Benzylpenicillin methyl phosphate. A penicillin prodrug that inactivates RTEM -lactamase” (Bioorg Med Chem Lett, 1994).
